The test deals with recombinant soluble trimeric hemagglutinin (triHA) (influenza A virus A/Belgium/2009 (H1N1, 2009 pandemic) | Saccharomyces cerevisiae). Put plainly: SEC.

On to “recombinant soluble trimeric hemagglutinin (triHA)”, for which the stoichiometry N was 3.
